From PMC7794846

Legend:
[1] = molecular target: LHCGR I83S mutant (human) (UniProt P22888)
[2] = molecular target: LHCGR E270V mutant (human) (UniProt P22888)
[3] = molecular target: human luteinizing hormone (LH)/chorionic gonadotropin (hCG) receptor (LHCGR), wild type (human) (UniProt P22888)
[4] = molecular target: LHCGR S149F mutant (human) (UniProt P22888)
[5] = molecular target: LHCGR K225S + T226I mutant (human) (UniProt P22888)
[6] = molecular target: LHCGR R247T mutant (human) (UniProt P22888)
[7] = molecular target: LHCGR A57T mutant (human) (UniProt P22888)
[8] = molecular target: LHCGR T48R mutant (human) (UniProt P22888)
[9] = molecular target: LHCGR N35D + V37A mutant (human) (UniProt P22888)
[10] = molecular target: LHCGR I83S mutant (human) (UniProt P22888); remark: listed apart in the source
[11] = molecular target: LHCGR E270V mutant (human) (UniProt P22888); remark: listed apart in the source
[12] = molecular target: human luteinizing hormone (LH)/chorionic gonadotropin (hCG) receptor (LHCGR), wild type (human) (UniProt P22888); remark: listed apart in the source
[13] = molecular target: LHCGR S149F mutant (human) (UniProt P22888); remark: listed apart in the source
[14] = molecular target: LHCGR K225S + T226I mutant (human) (UniProt P22888); remark: listed apart in the source
[15] = molecular target: LHCGR R247T mutant (human) (UniProt P22888); remark: listed apart in the source
[16] = molecular target: LHCGR A57T mutant (human) (UniProt P22888); remark: listed apart in the source
[17] = molecular target: LHCGR T48R mutant (human) (UniProt P22888); remark: listed apart in the source
[18] = molecular target: LHCGR N35D + V37A mutant (human) (UniProt P22888); remark: listed apart in the source

Substance: recombinant human chorionic gonadotropin (hCG) (from UniProt P01215 25-116; P0DN86 21-165) (ligand)
- hCG AUC of the pERK1/2 activation kinetics, BRET (REV biosensor) in transfected HEK293 cells, 100 pM hCG (relative units) [1]: 6.65
- hCG AUC of the pERK1/2 activation kinetics, BRET (REV biosensor) in transfected HEK293 cells, 100 pM hCG (relative units) [2]: 7.18
- hCG AUC of the pERK1/2 activation kinetics, BRET (REV biosensor) in transfected HEK293 cells, 100 pM hCG (relative units) [3]: 7.98
- hCG AUC of the pERK1/2 activation kinetics, BRET (REV biosensor) in transfected HEK293 cells, 100 pM hCG (relative units) [4]: 13.9
- hCG AUC of the pERK1/2 activation kinetics, BRET (REV biosensor) in transfected HEK293 cells, 100 pM hCG (relative units) [5]: 9.47
- hCG AUC of the pERK1/2 activation kinetics, BRET (REV biosensor) in transfected HEK293 cells, 100 pM hCG (relative units) [6]: 15.4
- hCG AUC of the pERK1/2 activation kinetics, BRET (REV biosensor) in transfected HEK293 cells, 100 pM hCG (relative units) [7]: 20.5
- hCG AUC of the pERK1/2 activation kinetics, BRET (REV biosensor) in transfected HEK293 cells, 100 pM hCG (relative units) [8]: 13.4
- hCG AUC of the pERK1/2 activation kinetics, BRET (REV biosensor) in transfected HEK293 cells, 100 pM hCG (relative units) [9]: 8.19
- hCG EC50 (pM) of cAMP increase, BRET (CAMYEL biosensor) in transfected HEK293 cells, 1 pM–100 nM hCG, 30 min [10]: 127 pM
- hCG EC50 (pM) of cAMP increase, BRET (CAMYEL biosensor) in transfected HEK293 cells, 1 pM–100 nM hCG, 30 min [11]: 248 pM
- hCG EC50 (pM) of cAMP increase, BRET (CAMYEL biosensor) in transfected HEK293 cells, 1 pM–100 nM hCG, 30 min [12]: 143 pM
- hCG EC50 (pM) of cAMP increase, BRET (CAMYEL biosensor) in transfected HEK293 cells, 1 pM–100 nM hCG, 30 min [13]: 111 pM
- hCG EC50 (pM) of cAMP increase, BRET (CAMYEL biosensor) in transfected HEK293 cells, 1 pM–100 nM hCG, 30 min [14]: 194 pM
- hCG EC50 (pM) of cAMP increase, BRET (CAMYEL biosensor) in transfected HEK293 cells, 1 pM–100 nM hCG, 30 min [15]: 386 pM
- hCG EC50 (pM) of cAMP increase, BRET (CAMYEL biosensor) in transfected HEK293 cells, 1 pM–100 nM hCG, 30 min [16]: 153 pM
- hCG EC50 (pM) of cAMP increase, BRET (CAMYEL biosensor) in transfected HEK293 cells, 1 pM–100 nM hCG, 30 min [17]: 130 pM
- hCG EC50 (pM) of cAMP increase, BRET (CAMYEL biosensor) in transfected HEK293 cells, 1 pM–100 nM hCG, 30 min [18]: 94.5 pM

Substance: recombinant human luteinizing hormone (LH) (from UniProt P01215 25-116; P01229 21-141) (ligand)
- LH AUC of the pERK1/2 activation kinetics, BRET (REV biosensor) in transfected HEK293 cells, 100 pM LH (relative units) [1]: 8.03
- LH AUC of the pERK1/2 activation kinetics, BRET (REV biosensor) in transfected HEK293 cells, 100 pM LH (relative units) [2]: 10.9
- LH AUC of the pERK1/2 activation kinetics, BRET (REV biosensor) in transfected HEK293 cells, 100 pM LH (relative units) [3]: 13.9
- LH AUC of the pERK1/2 activation kinetics, BRET (REV biosensor) in transfected HEK293 cells, 100 pM LH (relative units) [4]: 10.4
- LH AUC of the pERK1/2 activation kinetics, BRET (REV biosensor) in transfected HEK293 cells, 100 pM LH (relative units) [5]: 11.4
- LH AUC of the pERK1/2 activation kinetics, BRET (REV biosensor) in transfected HEK293 cells, 100 pM LH (relative units) [6]: 10.5
- LH AUC of the pERK1/2 activation kinetics, BRET (REV biosensor) in transfected HEK293 cells, 100 pM LH (relative units) [7]: 10.9
- LH AUC of the pERK1/2 activation kinetics, BRET (REV biosensor) in transfected HEK293 cells, 100 pM LH (relative units) [8]: 12.3
- LH AUC of the pERK1/2 activation kinetics, BRET (REV biosensor) in transfected HEK293 cells, 100 pM LH (relative units) [9]: 5.48
- LH EC50 (pM) of cAMP increase, BRET (CAMYEL biosensor) in transfected HEK293 cells, 1 pM–100 nM LH, 30 min [10]: 712 pM
- LH EC50 (pM) of cAMP increase, BRET (CAMYEL biosensor) in transfected HEK293 cells, 1 pM–100 nM LH, 30 min [11]: 2810 pM
- LH EC50 (pM) of cAMP increase, BRET (CAMYEL biosensor) in transfected HEK293 cells, 1 pM–100 nM LH, 30 min [12]: 1110 pM
- LH EC50 (pM) of cAMP increase, BRET (CAMYEL biosensor) in transfected HEK293 cells, 1 pM–100 nM LH, 30 min [13]: 756 pM
- LH EC50 (pM) of cAMP increase, BRET (CAMYEL biosensor) in transfected HEK293 cells, 1 pM–100 nM LH, 30 min [14]: 698 pM
- LH EC50 (pM) of cAMP increase, BRET (CAMYEL biosensor) in transfected HEK293 cells, 1 pM–100 nM LH, 30 min [15]: 556 pM
- LH EC50 (pM) of cAMP increase, BRET (CAMYEL biosensor) in transfected HEK293 cells, 1 pM–100 nM LH, 30 min [16]: 703 pM
- LH EC50 (pM) of cAMP increase, BRET (CAMYEL biosensor) in transfected HEK293 cells, 1 pM–100 nM LH, 30 min [17]: 1210 pM
- LH EC50 (pM) of cAMP increase, BRET (CAMYEL biosensor) in transfected HEK293 cells, 1 pM–100 nM LH, 30 min [18]: 595 pM
